Measured values as given in patent US20200369752A1 (published 2020).

B1: Syn7031.50.32 (antibody, V domains shown)
VH: EVQLVETGGGLVQPKGSLKLSCAASGFTFNTNAMNWVRQAPGKGLEWVVRIRTKSNNYATYYADSVKDRFTISRDDSQSMLYLQMNNLKTEDTAMYYCVRGGTGTGAMDYWGQGTSVTVSS
VL: DVVMTQTPLSLPVSLGDQASISCRSSQSLVHSNGNTYLHWCLQKPGQSPKLLIYKVSNRFSGVPDRFSGSGSGTDFTLKISRVEAEDLGVYFCSQSTHVPLTFGAGTKLELK
B2: Syn7012.15.32 (antibody, V domains shown)
VH: EVQLVETGGGLVQPKGSLKLSCAASGFTFNTNAMNWVRQAPGKGLEWVVRIRTKSNNYATYYADSVKDRFTISRDDSQSMLYLQMNNLKTEDTAMYYCVRGGTGTGAMDYWGQGTSVTVSS
VL: NIMMTQSPSSLAVSAGEKVTMSCKSSQSVLYSSNQKNYLAWYQQKPGQSPKLLIYWASTRESGVPDRFTGSGSGTDFTLTISSVQAEDLAVYYCHQYLSSYTFGGGTKLEIK
B3: Syn7009.32.40 (antibody, V domains shown)
VH: EVQLVETGGGLVQPKGSLKLSCAASGFTFNTNAMNWVRQAPGKGLEWVVRIRTKSNNYATYYADSVKDRFTISRDDSQSMLYLQMNNLKTEDTAMYYCVRGGTGTGAMDYWGQGTSVTVSS
VL: DVVMTQTPLSLPVSLGDQASISCRSSQSLVHSNGNTYLHWCLQKPGQSPKLLIYKVSNRFSGVPDRFSGSGSGTDFTLKISRVEAEDLGVYFCSQSTHVPLTFGAGTKLELK

Legend:
[1] = biological target: human fibrillar (PFF) α-Synuclein (UniProt P37840 1-140); assay: sandwich ELISA
[2] = biological target: human monomeric α-Synuclein (UniProt P37840 1-140); assay: sandwich ELISA

| Binder | EC50 [1] | EC50 [2] |
| --- | --- | --- |
| B1 | 8.86 nM | 567 nM |
| B2 | 10.6 nM | 555 nM |
| B3 | 10.1 nM | 947 nM |
